# Measurements from publication PMC7873046, “Structure of the Complete Dimeric Human GDAP1 Core Domain Provides Insights into Ligand Binding and Clustering of Disease Mutations” (Frontiers in Molecular Biosciences, 2021).
# T1: GDAP1∆295-358 (Homo sapiens, UniProt Q8TB36)
# T1 construct: C-terminally truncated (residues 295-358 deleted), alpha-loop insertion kept; N-terminal tag cut with TEV; E. coli BL21(DE3); monomer/dimer equilibrium
# T1 sequence (Q8TB36 1-294): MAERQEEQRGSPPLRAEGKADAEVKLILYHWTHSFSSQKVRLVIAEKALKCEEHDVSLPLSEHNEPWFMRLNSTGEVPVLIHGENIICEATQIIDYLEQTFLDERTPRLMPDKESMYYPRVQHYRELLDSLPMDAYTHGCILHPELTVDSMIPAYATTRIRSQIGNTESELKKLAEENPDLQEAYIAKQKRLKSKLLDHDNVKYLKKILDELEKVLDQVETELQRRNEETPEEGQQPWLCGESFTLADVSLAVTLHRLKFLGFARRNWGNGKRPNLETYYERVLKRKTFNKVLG
# T2: GDAP1∆319-358 (Homo sapiens, UniProt Q8TB36)
# T2 construct: C-terminally truncated (residues 319-358 deleted; hydrophobic and transmembrane region), alpha-loop insertion kept; N-terminal tag cut with TEV; E. coli BL21(DE3); monomer/dimer equilibrium
# T2 sequence (Q8TB36 1-318): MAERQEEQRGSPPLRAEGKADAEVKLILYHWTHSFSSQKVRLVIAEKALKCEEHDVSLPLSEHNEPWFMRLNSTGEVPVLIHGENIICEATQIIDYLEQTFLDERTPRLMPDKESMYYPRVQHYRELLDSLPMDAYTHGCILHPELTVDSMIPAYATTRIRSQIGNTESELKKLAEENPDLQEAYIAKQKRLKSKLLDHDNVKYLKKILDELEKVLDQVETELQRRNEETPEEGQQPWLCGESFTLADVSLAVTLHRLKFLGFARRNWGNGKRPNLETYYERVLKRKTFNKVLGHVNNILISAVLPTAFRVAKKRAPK
# B1: GDAP1∆319-358 (domain or fragment, human, UniProt Q8TB36 1-318, looked up)
# chain: MAERQEEQRGSPPLRAEGKADAEVKLILYHWTHSFSSQKVRLVIAEKALKCEEHDVSLPLSEHNEPWFMRLNSTGEVPVLIHGENIICEATQIIDYLEQTFLDERTPRLMPDKESMYYPRVQHYRELLDSLPMDAYTHGCILHPELTVDSMIPAYATTRIRSQIGNTESELKKLAEENPDLQEAYIAKQKRLKSKLLDHDNVKYLKKILDELEKVLDQVETELQRRNEETPEEGQQPWLCGESFTLADVSLAVTLHRLKFLGFARRNWGNGKRPNLETYYERVLKRKTFNKVLGHVNNILISAVLPTAFRVAKKRAPK
# notes: The constructs were put into pTH27 (N-terminal His6) and pDEST-Trx (N-terminal thioredoxin); Tag cleaved with TEV protease; also called ganglioside-induced differentiation-associated protein 1, C-terminally truncated; source: E. coli BL21 (DE3), purified (Ni-NTA, TEV cleavage, SEC); not shown: His6, N-terminal, cleaved
# B2: GDAP1∆295-358 (domain or fragment, human, UniProt Q8TB36 1-294, looked up)
# chain: MAERQEEQRGSPPLRAEGKADAEVKLILYHWTHSFSSQKVRLVIAEKALKCEEHDVSLPLSEHNEPWFMRLNSTGEVPVLIHGENIICEATQIIDYLEQTFLDERTPRLMPDKESMYYPRVQHYRELLDSLPMDAYTHGCILHPELTVDSMIPAYATTRIRSQIGNTESELKKLAEENPDLQEAYIAKQKRLKSKLLDHDNVKYLKKILDELEKVLDQVETELQRRNEETPEEGQQPWLCGESFTLADVSLAVTLHRLKFLGFARRNWGNGKRPNLETYYERVLKRKTFNKVLG
# notes: The constructs were put into pTH27 (N-terminal His6) and pDEST-Trx (N-terminal thioredoxin); also called ganglioside-induced differentiation-associated protein 1, C-terminally truncated; GDAP1 core domain; source: E. coli BL21 (DE3), purified (Ni-NTA, TEV cleavage, SEC); not shown: His6, N-terminal, cleaved
# B3: GDAP1∆303-358 Y29F (domain or fragment, human, UniProt Q8TB36 1-302, looked up)
# chain: MAERQEEQRGSPPLRAEGKADAEVKLILFHWTHSFSSQKVRLVIAEKALKCEEHDVSLPLSEHNEPWFMRLNSTGEVPVLIHGENIICEATQIIDYLEQTFLDERTPRLMPDKESMYYPRVQHYRELLDSLPMDAYTHGCILHPELTVDSMIPAYATTRIRSQIGNTESELKKLAEENPDLQEAYIAKQKRLKSKLLDHDNVKYLKKILDELEKVLDQVETELQRRNEETPEEGQQPWLCGESFTLADVSLAVTLHRLKFLGFARRNWGNGKRPNLETYYERVLKRKTFNKVLGHVNNILIS
# notes: Point mutant of m2, made by site-directed mutagenesis PCR; source: E. coli BL21 (DE3), purified (Ni-NTA, TEV cleavage, SEC); not shown: His6, N-terminal, cleaved
# B4: GDAP1∆303-358 (domain or fragment, human, UniProt Q8TB36 1-302, looked up)
# chain: MAERQEEQRGSPPLRAEGKADAEVKLILYHWTHSFSSQKVRLVIAEKALKCEEHDVSLPLSEHNEPWFMRLNSTGEVPVLIHGENIICEATQIIDYLEQTFLDERTPRLMPDKESMYYPRVQHYRELLDSLPMDAYTHGCILHPELTVDSMIPAYATTRIRSQIGNTESELKKLAEENPDLQEAYIAKQKRLKSKLLDHDNVKYLKKILDELEKVLDQVETELQRRNEETPEEGQQPWLCGESFTLADVSLAVTLHRLKFLGFARRNWGNGKRPNLETYYERVLKRKTFNKVLGHVNNILIS
# notes: The constructs were put into pTH27 (N-terminal His6) and pDEST-Trx (N-terminal thioredoxin); Tag cleaved with TEV protease; also called complete human GDAP1 core domain; source: E. coli BL21 (DE3), purified (Ni-NTA, TEV cleavage, SEC); not shown: His6, N-terminal, cleaved
# How the values were obtained:
# [1] = target: T1, GDAP1∆295-358; experiment: isothermal titration calorimetry; assay type: binding
# Source text: isothermal titration calorimetry on GDAP1∆295-358
# [2] = target: T2, GDAP1∆319-358; experiment: differential scanning fluorimetry (SYPRO Orange); assay type: binding; conditions: pH 7.5, 300 mM NaCl, 2% DMSO; HA titrated up to 250 µM
# [3] = target: the molecule itself; experiment: SEC-SAXS; 50 µL of protein at 8.5-10 mg/ml injected into BioSEC3-300 or Superdex 75 10/300 GL increase; 25 mM HEPES pH 7.5, 300 mM NaCl; +15 °C; GDAP1∆295-358 and GDAP1∆319-358 also with hexadecanedioic acid (HA), which gave a higher monomer fraction
# [4] = target: the molecule itself; experiment: non-reducing SDS-PAGE; SEC eluates of purified proteins on a non-reducing gel (GDAP1L1 also on a reducing gel); shows the covalent (disulfide) dimer
# [5] = target: the molecule itself; experiment: SEC-MALS; Superdex 75 10/300 GL increase in SEC buffer (25 mM HEPES pH 7.5, 300 mM NaCl); protein 1-10 mg/ml, 15-150 µg injected
molecule,measurement,setting,value
O=C(O)CCCCCCCCCCCCCCC(=O)O [hexadecanedioic acid],Kd,[1],2 ± 0.8 µM
same,dTm,[2],~ 3 °C
B1,stoichiometry N,[3],2
B2,stoichiometry N,[3],2
B3,stoichiometry N,[4],2
B4,stoichiometry N,[5],2
